We go through two proteins from patent publication US20210002623.

In data set [1] the target is T1, H-Trp-Phe-Tyr-Ser(PO3H2)-Pro-Arg-pNA.
T1 chain: WFYSPR

A further data set concerns the target T2, peptide YFLMNENRYTSWNSE
T2 chain: YFLMNENRYTSWNSE

B1: MjTET (TET aminopeptidase of Methanocaldococcus jannaschii, product of gene MJ0555) (protein)
chain: MSVVEYLKKLSKLHGISGREDSVREFMKKELEKYCDSVEIDNFGNLIAKRGNKGKKIMIAAHMDEIGLMVKYIDDNGFLKFTKIGGIYDPTILNQKVVVHGSKGDLIGVLGSKPPHRMKEEEKTKIIKYEDMFIDIGAESREEAIEMGVNIGTWVSFLSEVYDLGKNRLTGKAFDDRVGCAVLLEVMKRLSEEDIDCQVYAVGTVQEEVGLKGARVSAFKINPDVAIALDVTIAGDHPGIKKEDAPVDLGKGPVVGIVDASGRGLIAHPKVLDMIKAVSEKYKIDVQWEVGEGGTTDATAIHLTREGIPTGVISVPARYIHTPVEVIDKRDLEKTVELVYNCIKEVNNFF
As for B1, the “peptide hydrolysis followed by reverse phase HPLC” value in data set [1] is “After 5 minutes, the original peptide substrate was almost hydrolyzed and four peptide products were detected”. Also, in the data set with peptide YFLMNENRYTSWNSE, the time necessary to hydrolyse 50% of the peptide, at 20 °C was found to be 75 h; the time necessary to hydrolyse 50% of the peptide, at 30 °C came out at 55 h; the time necessary to hydrolyse 50% of the peptide, at 40 °C came to 3.9 h; the time necessary to hydrolyse 50% of the peptide, at 50 °C was 1.3 h. In the data set with peptide YFLMNENRYTSWNSE, this protein came in with a time necessary to hydrolyse 50% of the peptide, at 60 °C of 1 h; a time necessary to hydrolyse 50% of the peptide, at 70 °C of 0.6 h; a time necessary to hydrolyse 50% of the peptide, at 80 °C of 0.25 h.

B2: PhTET2 (leucyl aminopeptidase of Pyrococcus horikoshii) (protein)
chain: MEVRNMVDYELLKKVVEAPGVSGYEFLGIRDVVIEEIKDYVDEVKVDKLGNVIAHKKGEGPKVMIAAHMDQIGLMVTHIEKNGFLRVAPIGGVDPKTLIAQRFKVWIDKGKFIYGVGASVPPHIQKPEDRKKAPDWDQIFIDIGAESKEEAEDMGVKIGTVITWDGRLERLGKHRFVSIAFDDRIAVYTILEVAKQLKDAKADVYFVATVQEEVGLRGARTSAFGIEPDYGFAIDVTIAADIPGTPEHKQVTHLGKGTAIKIMDRSVICHPTIVRWLEELAKKHEIPYQLEILLGGGTDAGAIHLTKAGVPTGALSVPARYIHSNTEVVDERDVDATVELMTKALENIHELKI
Consider B2, for which, in the data set with peptide YFLMNENRYTSWNSE, the “time necessary to hydrolyse 50% of the peptide, at 40 °C” value is 0.5 h for PhTET2 compared to 3,9 h for MjTET at 40 °C.
